Paper PMC5511259

Biological target: Hd1 segment (aa112–337) between the zinc finger domain and the CCT domain (rice (Oryza sativa L.)) (UniProt Q9FDX8)
UniProt Q9FDX8, sequence (Q9FDX8 112-337): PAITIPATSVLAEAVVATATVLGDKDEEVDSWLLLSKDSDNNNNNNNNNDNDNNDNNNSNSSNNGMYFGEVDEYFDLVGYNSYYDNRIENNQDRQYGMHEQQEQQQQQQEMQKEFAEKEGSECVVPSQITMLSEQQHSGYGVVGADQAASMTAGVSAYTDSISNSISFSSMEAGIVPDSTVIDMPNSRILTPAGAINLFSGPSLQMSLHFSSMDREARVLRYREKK

## Ghd7 (aa187–257) segment containing the CCT domain (from UniProt E5RQA1 187-257) (domain or fragment)
  relative LUC activity activated by GAL4-Hd1^ZS (full-length CDS of Hd1 from ZS97) in rice protoplasts with increasing dosage of 35S:Ghd7-CFP (2, 4, 10 μg); decreased from 7.0 to 0.8 (relative LUC activity): 7
